Test results from US20160272683A1 (Novo Nordisk, published 2016).
Each block holds one binder with its values, some of them ahead of it. Numbered stars: 1 amine (or outer) side, 2 acyl side, 3 side chain; on linkers, the order of the positions; unused ones are H or OH. * marks the point of attachment. C20 diacid = O=C(O)CCCCCCCCCCCCCCCCCCC(=O)*; C18 diacid = O=C(O)CCCCCCCCCCCCCCCCC(=O)*; γGlu = O=C(O)[C@H](CCC(=O)[*:2])N[*:1]

What was measured:
[1] = target: T1, human calcitonin receptor on BHK570/CRE-luc cells (human, UniProt P30988 25-474); experiment: cell-based or functional assay
T1 sequence (looked up): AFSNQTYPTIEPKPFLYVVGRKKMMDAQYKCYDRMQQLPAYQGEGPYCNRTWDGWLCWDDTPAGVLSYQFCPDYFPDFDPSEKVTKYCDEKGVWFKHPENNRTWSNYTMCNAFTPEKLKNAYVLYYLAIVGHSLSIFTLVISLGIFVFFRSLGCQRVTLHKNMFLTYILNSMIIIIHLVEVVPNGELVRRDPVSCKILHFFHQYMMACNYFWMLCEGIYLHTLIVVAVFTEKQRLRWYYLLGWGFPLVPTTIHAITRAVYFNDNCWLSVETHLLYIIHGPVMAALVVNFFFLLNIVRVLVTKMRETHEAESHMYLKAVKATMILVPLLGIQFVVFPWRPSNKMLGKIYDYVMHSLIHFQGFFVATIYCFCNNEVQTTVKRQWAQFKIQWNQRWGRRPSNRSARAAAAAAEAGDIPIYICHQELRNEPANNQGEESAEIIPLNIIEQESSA

[2] = target: T2, human amylin 3(a) receptor (human calcitonin receptor co-expressed with RAMP-3) on BHK570/CRE-luc cells (human, UniProt P30988 25-474; O60896 24-148); experiment: cell-based or functional assay
T2 sequence (looked up) 1: T1 sequence (looked up)
T2 sequence (looked up) 2: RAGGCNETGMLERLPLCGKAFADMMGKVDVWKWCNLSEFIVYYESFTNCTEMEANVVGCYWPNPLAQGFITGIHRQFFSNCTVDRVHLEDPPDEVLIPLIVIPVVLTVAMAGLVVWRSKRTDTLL

hCTR funct. EC50 (pM), tested with HSA [1]: 92 pM
hAmylin-R funct. EC50 (pM), tested with HSA [2]: 128 pM
B1: [N-terminal(C20 diacid-gGlu), 4G, 15Q, 21Q, 23Y, 30S, 31G, 32T, 33Y]mimylin (peptide)
peptide: {C20 diacid-γGlu}-EASGLSTAALGRLSQELHELQTYPRTETGSGTY-NH2
SMILES: CC(C)C[C@H](NC(=O)CNC(=O)[C@H](CO)NC(=O)[C@H](C)NC(=O)[C@H](CCC(=O)O)NC(=O)CC[C@H](NC(=O)CCCCCCCCCCCCCCCCCCC(=O)O)C(=O)O)C(=O)N[C@@H](CO)C(=O)N[C@H](C(=O)N[C@@H](C)C(=O)N[C@@H](C)C(=O)N[C@@H](CC(C)C)C(=O)NCC(=O)N[C@@H](CCCNC(=N)N)C(=O)N[C@@H](CC(C)C)C(=O)N[C@@H](CO)C(=O)N[C@@H](CCC(N)=O)C(=O)N[C@@H](CCC(=O)O)C(=O)N[C@@H](CC(C)C)C(=O)N[C@@H](Cc1c[nH]cn1)C(=O)N[C@@H](CCC(=O)O)C(=O)N[C@@H](CC(C)C)C(=O)N[C@@H](CCC(N)=O)C(=O)N[C@H](C(=O)N[C@@H](Cc1ccc(O)cc1)C(=O)N1CCC[C@H]1C(=O)N[C@@H](CCCNC(=N)N)C(=O)N[C@H](C(=O)N[C@@H](CCC(=O)O)C(=O)N[C@H](C(=O)NCC(=O)N[C@@H](CO)C(=O)NCC(=O)N[C@H](C(=O)N[C@@H](Cc1ccc(O)cc1)C(N)=O)[C@@H](C)O)[C@@H](C)O)[C@@H](C)O)[C@@H](C)O)[C@@H](C)O

hCTR funct. EC50 (pM), tested with HSA [1]: 22 pM
hAmylin-R funct. EC50 (pM), tested with HSA [2]: 179 pM
B2: [N-terminal(C18 diacid-gGlu), des1, 6T, 9V, 14T, 21E, 30T, 31G, 32T]mimylin (peptide)
peptide: {C18 diacid-γGlu}-ASELTTAVLGRLTAELHELETLPRTETGTGTP-NH2
SMILES: CC(C)C[C@H](NC(=O)[C@H](CCC(=O)O)NC(=O)[C@H](C)NC(=O)[C@@H](NC(=O)[C@H](CC(C)C)NC(=O)[C@H](CCCNC(=N)N)NC(=O)CNC(=O)[C@H](CC(C)C)NC(=O)[C@@H](NC(=O)[C@H](C)NC(=O)[C@@H](NC(=O)[C@@H](NC(=O)[C@H](CC(C)C)NC(=O)[C@H](CCC(=O)O)NC(=O)[C@H](CO)NC(=O)[C@H](C)NC(=O)CC[C@H](NC(=O)CCCCCCCCCCCCCCCCC(=O)O)C(=O)O)[C@@H](C)O)[C@@H](C)O)C(C)C)[C@@H](C)O)C(=O)N[C@@H](Cc1c[nH]cn1)C(=O)N[C@@H](CCC(=O)O)C(=O)N[C@@H](CC(C)C)C(=O)N[C@@H](CCC(=O)O)C(=O)N[C@H](C(=O)N[C@@H](CC(C)C)C(=O)N1CCC[C@H]1C(=O)N[C@@H](CCCNC(=N)N)C(=O)N[C@H](C(=O)N[C@@H](CCC(=O)O)C(=O)N[C@H](C(=O)NCC(=O)N[C@H](C(=O)NCC(=O)N[C@H](C(=O)N1CCC[C@H]1C(N)=O)[C@@H](C)O)[C@@H](C)O)[C@@H](C)O)[C@@H](C)O)[C@@H](C)O

hCTR funct. EC50 (pM), tested with HSA [1]: 53 pM
hAmylin-R funct. EC50 (pM), tested with HSA [2]: 122 pM
B3: [N-terminal(C20 diacid-gGlu), des1, 4G, 9V, 23Y, 30S, 31G, 32T, 33Y]mimylin (peptide)
peptide: {C20 diacid-γGlu}-ASGLSTAVLGRLSAELHELATYPRTETGSGTY-NH2
SMILES: CC(C)C[C@H](NC(=O)CNC(=O)[C@H](CO)NC(=O)[C@H](C)NC(=O)CC[C@H](NC(=O)CCCCCCCCCCCCCCCCCCC(=O)O)C(=O)O)C(=O)N[C@@H](CO)C(=O)N[C@H](C(=O)N[C@@H](C)C(=O)N[C@H](C(=O)N[C@@H](CC(C)C)C(=O)NCC(=O)N[C@@H](CCCNC(=N)N)C(=O)N[C@@H](CC(C)C)C(=O)N[C@@H](CO)C(=O)N[C@@H](C)C(=O)N[C@@H](CCC(=O)O)C(=O)N[C@@H](CC(C)C)C(=O)N[C@@H](Cc1c[nH]cn1)C(=O)N[C@@H](CCC(=O)O)C(=O)N[C@@H](CC(C)C)C(=O)N[C@@H](C)C(=O)N[C@H](C(=O)N[C@@H](Cc1ccc(O)cc1)C(=O)N1CCC[C@H]1C(=O)N[C@@H](CCCNC(=N)N)C(=O)N[C@H](C(=O)N[C@@H](CCC(=O)O)C(=O)N[C@H](C(=O)NCC(=O)N[C@@H](CO)C(=O)NCC(=O)N[C@H](C(=O)N[C@@H](Cc1ccc(O)cc1)C(N)=O)[C@@H](C)O)[C@@H](C)O)[C@@H](C)O)[C@@H](C)O)C(C)C)[C@@H](C)O

hCTR funct. EC50 (pM), tested with HSA [1]: 28 pM
hAmylin-R funct. EC50 (pM), tested with HSA [2]: 106 pM
B4: [N-terminal(C18 diacid-gGlu), des1, 5V, 9V, 10V, 20V, 30S, 31G]mimylin (peptide)
peptide: {C18 diacid-γGlu}-ASEVSTAVVGRLSAELHEVATLPRTETGSGSP-NH2
SMILES: CC(C)C[C@H](NC(=O)[C@H](CCCNC(=N)N)NC(=O)CNC(=O)[C@@H](NC(=O)[C@@H](NC(=O)[C@H](C)NC(=O)[C@@H](NC(=O)[C@H](CO)NC(=O)[C@@H](NC(=O)[C@H](CCC(=O)O)NC(=O)[C@H](CO)NC(=O)[C@H](C)NC(=O)CC[C@H](NC(=O)CCCCCCCCCCCCCCCCC(=O)O)C(=O)O)C(C)C)[C@@H](C)O)C(C)C)C(C)C)C(=O)N[C@@H](CO)C(=O)N[C@@H](C)C(=O)N[C@@H](CCC(=O)O)C(=O)N[C@@H](CC(C)C)C(=O)N[C@@H](Cc1c[nH]cn1)C(=O)N[C@@H](CCC(=O)O)C(=O)N[C@H](C(=O)N[C@@H](C)C(=O)N[C@H](C(=O)N[C@@H](CC(C)C)C(=O)N1CCC[C@H]1C(=O)N[C@@H](CCCNC(=N)N)C(=O)N[C@H](C(=O)N[C@@H](CCC(=O)O)C(=O)N[C@H](C(=O)NCC(=O)N[C@@H](CO)C(=O)NCC(=O)N[C@@H](CO)C(=O)N1CCC[C@H]1C(N)=O)[C@@H](C)O)[C@@H](C)O)[C@@H](C)O)C(C)C

hCTR funct. EC50 (pM), tested with HSA [1]: 40 pM
hAmylin-R funct. EC50 (pM), tested with HSA [2]: 92 pM
B5: [N-terminal(C20 diacid-gGlu), des1, 9T, 21S, 23Y, 30S, 31G, 33Y]mimylin (peptide)
peptide: {C20 diacid-γGlu}-ASELSTATLGRLSAELHELSTYPRTETGSGSY-NH2
SMILES: CC(C)C[C@H](NC(=O)[C@H](CCCNC(=N)N)NC(=O)CNC(=O)[C@H](CC(C)C)NC(=O)[C@@H](NC(=O)[C@H](C)NC(=O)[C@@H](NC(=O)[C@H](CO)NC(=O)[C@H](CC(C)C)NC(=O)[C@H](CCC(=O)O)NC(=O)[C@H](CO)NC(=O)[C@H](C)NC(=O)CC[C@H](NC(=O)CCCCCCCCCCCCCCCCCCC(=O)O)C(=O)O)[C@@H](C)O)[C@@H](C)O)C(=O)N[C@@H](CO)C(=O)N[C@@H](C)C(=O)N[C@@H](CCC(=O)O)C(=O)N[C@@H](CC(C)C)C(=O)N[C@@H](Cc1c[nH]cn1)C(=O)N[C@@H](CCC(=O)O)C(=O)N[C@@H](CC(C)C)C(=O)N[C@@H](CO)C(=O)N[C@H](C(=O)N[C@@H](Cc1ccc(O)cc1)C(=O)N1CCC[C@H]1C(=O)N[C@@H](CCCNC(=N)N)C(=O)N[C@H](C(=O)N[C@@H](CCC(=O)O)C(=O)N[C@H](C(=O)NCC(=O)N[C@@H](CO)C(=O)NCC(=O)N[C@@H](CO)C(=O)N[C@@H](Cc1ccc(O)cc1)C(N)=O)[C@@H](C)O)[C@@H](C)O)[C@@H](C)O

hCTR funct. EC50 (pM), tested with HSA [1]: 31 pM
hAmylin-R funct. EC50 (pM), tested with HSA [2]: 157 pM
Binder: {C18 diacid-γGlu}-ASELTTAVLGRLEAELHELTTLPRTETGTGTP-NH2 [[N-terminal(C18 diacid-gGlu), des1, 6T, 9V, 14E, 21T, 30T, 31G, 32T]mimylin]

hCTR funct. EC50 (pM), tested with HSA [1]: 73 pM
hAmylin-R funct. EC50 (pM), tested with HSA [2]: 93 pM
B6: [N-terminal(C20 diacid-gGlu), des1, 12K, 23Y, 25K, 30S, 31G, 33Y]mimylin (peptide)
peptide: {C20 diacid-γGlu}-ASELSTAALGKLSAELHELATYPKTETGSGSY-NH2
SMILES: CC(C)C[C@H](NC(=O)[C@H](C)NC(=O)[C@H](C)NC(=O)[C@@H](NC(=O)[C@H](CO)NC(=O)[C@H](CC(C)C)NC(=O)[C@H](CCC(=O)O)NC(=O)[C@H](CO)NC(=O)[C@H](C)NC(=O)CC[C@H](NC(=O)CCCCCCCCCCCCCCCCCCC(=O)O)C(=O)O)[C@@H](C)O)C(=O)NCC(=O)N[C@@H](CCCCN)C(=O)N[C@@H](CC(C)C)C(=O)N[C@@H](CO)C(=O)N[C@@H](C)C(=O)N[C@@H](CCC(=O)O)C(=O)N[C@@H](CC(C)C)C(=O)N[C@@H](Cc1c[nH]cn1)C(=O)N[C@@H](CCC(=O)O)C(=O)N[C@@H](CC(C)C)C(=O)N[C@@H](C)C(=O)N[C@H](C(=O)N[C@@H](Cc1ccc(O)cc1)C(=O)N1CCC[C@H]1C(=O)N[C@@H](CCCCN)C(=O)N[C@H](C(=O)N[C@@H](CCC(=O)O)C(=O)N[C@H](C(=O)NCC(=O)N[C@@H](CO)C(=O)NCC(=O)N[C@@H](CO)C(=O)N[C@@H](Cc1ccc(O)cc1)C(N)=O)[C@@H](C)O)[C@@H](C)O)[C@@H](C)O

hCTR funct. EC50 (pM), tested with HSA [1]: 108 pM
hAmylin-R funct. EC50 (pM), tested with HSA [2]: 143 pM
B7: [N-terminal(C20 diacid-gGlu), des1, 9S, 21S, 23Y, 30S, 31G, 33Y]mimylin (peptide)
peptide: {C20 diacid-γGlu}-ASELSTASLGRLSAELHELSTYPRTETGSGSY-NH2
SMILES: CC(C)C[C@H](NC(=O)[C@H](CO)NC(=O)[C@H](C)NC(=O)[C@@H](NC(=O)[C@H](CO)NC(=O)[C@H](CC(C)C)NC(=O)[C@H](CCC(=O)O)NC(=O)[C@H](CO)NC(=O)[C@H](C)NC(=O)CC[C@H](NC(=O)CCCCCCCCCCCCCCCCCCC(=O)O)C(=O)O)[C@@H](C)O)C(=O)NCC(=O)N[C@@H](CCCNC(=N)N)C(=O)N[C@@H](CC(C)C)C(=O)N[C@@H](CO)C(=O)N[C@@H](C)C(=O)N[C@@H](CCC(=O)O)C(=O)N[C@@H](CC(C)C)C(=O)N[C@@H](Cc1c[nH]cn1)C(=O)N[C@@H](CCC(=O)O)C(=O)N[C@@H](CC(C)C)C(=O)N[C@@H](CO)C(=O)N[C@H](C(=O)N[C@@H](Cc1ccc(O)cc1)C(=O)N1CCC[C@H]1C(=O)N[C@@H](CCCNC(=N)N)C(=O)N[C@H](C(=O)N[C@@H](CCC(=O)O)C(=O)N[C@H](C(=O)NCC(=O)N[C@@H](CO)C(=O)NCC(=O)N[C@@H](CO)C(=O)N[C@@H](Cc1ccc(O)cc1)C(N)=O)[C@@H](C)O)[C@@H](C)O)[C@@H](C)O
